Reference: patent US11672846B2, “Soluble bacterial and fungal proteins and methods and uses thereof in inhibiting and dispersing biofilm” (priority 2014, dated 2023)
“Also recorded” adds a separate entry of the source.

What was measured:
[1] = test system: preformed A. fumigatus biofilm; experiment: Ega3 disruption of preformed A. fumigatus biofilm; type: cell-based; settings: 1 μM, 1.5 h, room temperature
Description: To determine the effect hydrolase has on a preformed biofilm, 10^5 A. fumigatus conidia were inoculated per well in DMEM media as above, but in the absence of hydrolase. Following 18 h incubation at 37° C., 5% CO2, the resulting biofilm was treated with Ega346-318 at a final concentration of 1 μM for 1.5 h at room temperature on a nutator. The biofilms were then washed and stained as mentioned above.

A. fumigatus = experiment: Ega3 inhibition of A. fumigatus biofilm formation (crystal violet, imaged); type: cell-based; settings: 1 μM, 18 h
Description: A. fumigatus conidia were inoculated into polystyrene, round-bottom 24-well plates at a concentration of 10^5 conidia/well in DMEM media. To assess the inhibition of biofilm formation, Ega346-318 was added at a final concentration of 1 μM and the conidia incubated for 18 h at 37° C., 5% CO2. The resulting biofilms were then gently washed twice with distilled water, and stained with 0.1% crystal violet for 10 min. Samples were washed twice with water and the wells were imaged.

A. fumigatus hyphae = experiment: SBA-FITC lectin staining of A. fumigatus hyphae after Ega3 treatment; type: cell-based; settings: 0.5 μM, 3 h
[2] = test system: PNAG-overproducing E. coli; experiment: Inhibition of PNAG-dependent E. coli biofilm formation (crystal violet); settings: read-out: EC50 of E. coli biofilm formation prevention, static 24 h at 26° C.
Description: In brief, PNAG-overproducing E. coli or S. carnosus was grown at 37° C. overnight in LB broth supplement with 200 μg/mL ampicillin and 100 μg/mL kanamycin, and 10 μg/mL tetracycline, respectively, with shaking at 200 rpm. Fresh cultures with antibiotic were prepared from the overnight culture using a 1:100 dilution, using LB broth for E. coli, and tryptic soy broth for S. carnosus. 95 μL of diluted culture was added to a sterile 96-well polystyrene round bottom microtiter plate and varying concentrations of protein (2 nM-5 μM) were added in 5 μL aliquots to give a final volume of 100 μL. The cultures were incubated statically for 24 h at 26° C. for E. coli, and 37° C. for S. carnosus, to allow for biofilm formation. To eliminate edge-effects, ˜200 μL of sterile water was placed in all outside wells and the plate was sealed with parafilm. After incubation non-adherent cells and media were removed by washing the plate with deionized water three times. The wells were stained with 150 μL of 0.1% (w/v) crystal violet for 10 min, and washed with water three times. The remaining dye was solubilized with 100 μL of 33% (v/v) acetic acid for 10 min with rotation, after which time the absorbance was measured at 595 nm using a SpectraMax M2 from Molecular Devices (Sunnyvale, Calif.). […] All reactions were completed in at least triplicates and buffer G was used as an untreated control. Either an E. coli pgaABCD knockout strain (DPGA) or S. carnosus treated with gentamycin, was used as a control for background straining.

S. carnosus = experiment: Inhibition of PNAG-dependent S. carnosus biofilm formation; settings: 5 μM, preliminary testing
Description: In brief, PNAG-overproducing E. coli or S. carnosus was grown at 37° C. overnight in LB broth supplement with 200 μg/mL ampicillin and 100 μg/mL kanamycin, and 10 μg/mL tetracycline, respectively, with shaking at 200 rpm. Fresh cultures with antibiotic were prepared from the overnight culture using a 1:100 dilution, using LB broth for E. coli, and tryptic soy broth for S. carnosus. 95 μL of diluted culture was added to a sterile 96-well polystyrene round bottom microtiter plate and varying concentrations of protein (2 nM-5 μM) were added in 5 μL aliquots to give a final volume of 100 μL. The cultures were incubated statically for 24 h at 26° C. for E. coli, and 37° C. for S. carnosus, to allow for biofilm formation. To eliminate edge-effects, ˜200 μL of sterile water was placed in all outside wells and the plate was sealed with parafilm. After incubation non-adherent cells and media were removed by washing the plate with deionized water three times. The wells were stained with 150 μL of 0.1% (w/v) crystal violet for 10 min, and washed with water three times. The remaining dye was solubilized with 100 μL of 33% (v/v) acetic acid for 10 min with rotation, after which time the absorbance was measured at 595 nm using a SpectraMax M2 from Molecular Devices (Sunnyvale, Calif.). […] All reactions were completed in at least triplicates and buffer G was used as an untreated control. […]

[3] = test system: PNAG-overproducing E. coli biofilms; experiment: Dispersal of pre-formed PNAG-dependent E. coli biofilms; settings: read-out: EC50 of degradation of pre-formed E. coli biofilm; 60 min, average starting OD595 of 0.5
Description: Bacterial cultures expressing Psl were inoculated as stated above and were grown at 37° C. overnight with shaking at 200 rpm. All cultures were diluted in 1:100 in LB and arabinose was added to a final concentration of 0.5% (w/v) to induce Psl biosynthesis. Media containing the Psl-producing cultures were supplemented with 200 μg/mL ampicillin and 100 μg/mL kanamycin. The cultures were incubated statically for 24 h at 26° C. to allow for biofilm formation. After incubation non-adherent cells and media were removed by washing the plate with deionized water three times. The wells were filled with 95 μL of 100 mM sodium HEPES buffer pH 7.0 followed by 5 μL of varying concentrations of each hydrolytic enzyme (2 nM-5 μM). Reactions were allowed to proceed for up to 60 min at 25° C. on a rotating nutator at which time, the reaction was quenched by washing the plates with deionized water. The wells were stained with 200 μL of 0.1% (w/v) crystal violet for 10 min, and washed with water three times. Crystal violet dye from Psi cultures was solubilized in 100 μL of 95% ethanol for 10 min with rotation, after which time the absorbance was measured at 595 nm using a SpectraMax M2 from Molecular Devices (Sunnyvale, Calif.). The amount of biofilm is proportional to the absorbance from staining with crystal violet (Merritt et al 2005). All reactions were completed in at least triplicate and 100 mM sodium HEPES buffer pH 7.0 was used as an untreated control. The addition of 2.5 mg/mL kanamycin to culture prior to biofilm formation was used as a positive control as no cell growth occurs.
PNAG-overproducing E. coli was grown at 37° C. overnight in LB broth supplement with 200 ug/mL ampicillin and 100 ug/mL kanamycin with shaking at 200 rpm. An E. coli μgaABCD knockout strain was used as a non-biofilm forming control for background straining.

[4] = Reducing sugar assay on dPNAG; type: biochemical, S. aureus
Description: Isolated dPNAG from S. aureus strain MN8m was solubilized in 6 N HCl at ˜10 mg/mL. 10 N NaOH was used to titrate the re-suspension until neutrality was reached, ˜pH 7-8. In a 50 μL reaction, 1 μM BpsB318-670 was incubated with 1-5 mg/mL of dPNAG in 100 mM HEPES pH 7.0 for 18 hours. The sample was split into two 20 μL aliquots and treated with DTT/3-Methyl-2-benzothiazolinone hydrazone hydrochloride hydrate and heated at 80° C. for 15 minutes. A solution of 0.5% (w/w) iron (III) ammonium sulfate dodecahydrate, 0.5% (w/w) sulfamic acid, and 0.25 N hydrochloric acid was added, mixed, and cooled to room temperature. […] Protein and dPNAG in buffer H were used as background controls.

A. fumigatus GAG biofilm = experiment: Inhibition of GAG-dependent A. fumigatus biofilm formation (crystal violet); type: cell-based
[5] = test system: RFP-expressing Af293 hyphae; experiment: Uptake of Bodipy-conjugated posaconazole by hyphae (confocal microscopy); type: cell-based, A. fumigatus; settings: 0.5 μM pretreatment 90 min
Description: Red Fluorescent Protein (RFP)-expressing Af293 hyphae were pretreated with 0.5 μM Sph3AC(54-304) hydrolase for 90 min before treatment with Bodipy-conjugated posaconazole (BDP-PCZ). At various time points, samples were fixed and imaged using fluorescent confocal microscopy to determine the kinetics of drug penetration of hyphae.

[6] = test system: A549 pulmonary epithelial cell line injured by A. fumigatus; experiment: Chromium release epithelial cell damage assay; settings: recombinant Sph3 hydrolases, up to 24 h
Description: The immortalized airway epithelial cell line A549 was loaded with chromium-51 by incubating monolayers grown in 24-well tissue culture plates with 3 mCi of ^51Cr at 37° C. in 5% CO2 for 24 h. Excess chromium was removed by washing with Hank's Balanced Salt Solution (HBSS). […] For testing germ tubes, conidia were grown for 7 h in SAB media at 37° C., then the fungus was collected and resuspended in DF12K media before 0.5 μM of hydrolase was added. The germ tubes were incubated with hydrolase for 1 h before being added to the A549 cells. After 16, 20 and 24 h of co-incubation, an aliquot of the medium above the cells was retrieved and replaced with fresh media. The cells were then lysed with 6 N NaOH and the lysate collected. The ^51Cr content of the medium and lysates was then measured in a gamma counter and the extent of epithelial cell damage was calculated as a function of the degree of ^51Cr release. Each strain was tested in triplicate, and all results were corrected for spontaneous chromium release by uninfected epithelial cells.
The methodology for prevention of epithelial cell damage caused by A. fumigatus using Sph352-298 is identical to that previously described in Example 19 for the use PelA47-303.

Trichosporon asahii = experiment: SBA-FITC lectin staining of Trichosporon asahii after hydrolase treatment; type: cell-based; settings: 0.5 μM, 3 h
Description: To assess the effects of hydrolase treatment on Trichosporon asahii, 1×10^5 T. asahii yeast cells or A. fumigatus conidia were inoculated in Dulbecco's Modified Eagle Medium (DMEM), and grown for 10 h at 37° C., 5% CO2 on glass coverslips. Wells were gently washed once with Ham's F-12K (Kaighn's) Medium (F12K) media, and Sph3AC(54-304) was added at a final concentration of 0.5 μM in F12K, and incubated for an additional 3 h at 37° C., 5% CO2. Young hyphae were washed twice with PBS, and stained with FITC tagged SBA for 1 h. The stained samples were washed with PBS and fixed with 4% PFA for 15 min. Slides were then mounted, sealed, and imaged under confocal microscopy with a 488 nm laser (Zeiss).

[7] = test system: pre-formed A. fumigatus GAG biofilms; type: cell-based; settings: crystal violet
[8] = test system: Botrytis cinerea isolate 7b1; experiment: Lectin staining of Botrytis cinerea hyphae after hydrolase treatment; type: cell-based; settings: 1 μM
Description: Botrytis cinerea isolate 7b1 was inoculated at a concentration of 6×10^3 conidia/ml in 500 μl of Brian media on poly-D-lysine-coated coverslips (Corning, Bedford, Mass.) for 17 h at room temperature, in the dark. Samples were incubated either in the presence or absence of 1 μM Sph3AC(54-304). Media was then removed and the hyphae were incubated in PBS with or without 1 μM Sph3AC(54-304) for 1 h at room temperature. Samples were washed twice with PBS, and stained with 30 μg/mL of Wisteria fluoribunda (WFL) lectin conjugated to fluoresceine for 2 h at 4° C. Samples were washed twice with PBS, and fixed with 4% paraformaldehyde for 10 min at 4° C. Samples were washed once and stained with a 1:1000 dilution of DRAQ5™ (eBioscience, San Diego, Calif.) for 5 min at room temperature. Samples were washed once with PBS, mounted onto microscope slides using SlowFade® Gold antifade reagent (life Technologies™, Eugene, Oreg.), and sealed with nail polish. Images were acquired on an Olympus Fluoview confocal laser microscope using 488 and 633 nm lasers coupled with BA505-525 and BA650IF filters, respectively. Z-stacks of 0.2 μm increments were acquired, and 3D-rendered using ImageJ software (National Institutes of Health).

B1: Ega346-318: soluble Ega3 residues 46-318, Aspergillus fumigatus Af293, SEQ ID NO: 21 (protein, listed as Aspergillus fumigatus)
chain: GLGGGGGGEGEEGSGGETTPPEGNYTTAKWQPAVGTKWQIELLYALNDTSVDAEIYDIDLFINDKSTIAGLQRAGRKVICYFSAGSYENWRPDKDKFKDSDLGHDLDDWPGEKWLNISSANVRQIMLDRLDMARDKGCDGVDPDNVDGYDNDNGLDLTQADSISFVNFLANAAHARNMSIGLKNAGDIIPSVIKNMQWSVNEQCAQYNECDTYAVFPQNGKPVFHIEYPKGDKTNNDLSVTASQKNAACDFAGSANFSTVIKNMNLNNWVEYC
effect on preformed 18 h A. fumigatus biofilm [1]: allowed for disruption of the biofilm
A. fumigatus biofilm formation / adherence in presence of enzyme (A. fumigatus): prevented biofilm formation; also recorded: completely non-adherent
detectable GalNAc on hyphal surface after treatment (A. fumigatus hyphae): complete loss of detectable

B2: BpsB318-670: BpsB C-terminal hydrolase domain residues 318-670, SEQ ID NO: 19 (protein, listed as Bordetella bronchiseptica)
chain: PIERIVQVDLDYIYDPDPEQQNRNLGQLIDRMKDLAPSAVYLQAFADPKGDGDITEVYFPNRHLPMRADLFNRVAWQLKTRAGVMVYAWLPVLTFSVPPGNPAYGKVVQSTTRKPGERGLGSPTRLSPFHPDAHRVISEIYEDLAKAAHFDGLLFHDDAVLDDTEDSSPEALATYQGWGLPPDIAAIRADPKLAQQWSKGKIRYLIDFTMHLRHIVSGYQNDRDMVVARNLYAQPVLDPVSEAWYGQSLPEFLKSYDFVALMAMPNMEGAARPEQWMRQLVAAVARQKGLDRTIFELQARDWRVGKPIDTEILRRQMVQLRSLGAINYGYYPDDFIANHPDAEALRDVMSLKS
EC50 [2]: ~60 nM
inhibition of S. carnosus biofilm formation (in words) (S. carnosus): can inhibit biofilm formation
EC50 [3]: ~90 nM
dPNAG hydrolysis (in words) [4]: hydrolyze dPNAG

B3: Sph3AC(54-304): Sph3 ortholog residues 54-304, Aspergillus clavatus NRRL 1, SEQ ID NO: 22 (protein, listed as Aspergillus clavatus)
chain: MGPKSKVFVPLYVYPAPGAWDPLEDVISKHPDVNFTVVINPGSGPGPEALPDGNYTREIPKLASYENVRLLGYVATTYAKRNISEVRRDIETYAAWPTQSSNANLAVRGIFFDETPQQYDADILAYLRELTDVVKGTSGLGPDHYVVHNPGAIPDSRYLSTADSTVVFEATYATFQERHGAELFDTIPDSHRDQLCAVIHSVPTSVEGSDLRGLVKQVRQVADEIFITHLETDYYAGFGGQWSEFVDLMAS
inhibition of A. fumigatus biofilm formation by recombinant Sph3 (in words) (A. fumigatus GAG biofilm): inhibit the formation of A. fumigatus biofilms in a dose dependent manner
uptake of fluorescent-tagged posaconazole by hyphae [5]: increases the activity of antifungals; also recorded: increased the speed and degree of uptake
epithelial cell damage by A. fumigatus, chromium release [6]: completely protected epithelial cells from damage by A. fumigatus for 24 h
epithelial cell damage by A. fumigatus, chromium release ([6]; listed as Sph3 from A. clavatus): reduced fungal damage to epithelial cells
surface GalNAc exopolysaccharide of T. asahii after treatment (Trichosporon asahii): complete loss
dispersal of pre-formed GAG biofilm (in words) [7]: capable of disrupting GAG-dependent biofilms
GAG exopolysaccharide on B. cinerea hyphae after treatment [8]: complete loss of this exopolysaccharide
